Reference: the supplement of paper PMC10724198

system: Saccharomyces cerevisiae; assay: protein stability index of tFT-peptide fusion in wild type (PSI (0-1 scale)); higher = more stable (slower turnover); conditions: genetic background: wild type
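For protein stability index of tFT-peptide fusion in deletion strain of DOA10 in this document: PSI per variant is the weighted mean of its sequencing read distribution over the sorted stability bins, counting only variants with over 10 reads summed across bins.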
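For protein stability index of tFT-peptide fusion in wild type in this document: PSI derived as read-weighted mean over the 8 sorting bins, only variants exceeding 10 total reads kept, mCherry placed adjacent to the peptide and sfGFP distal.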

Compared with CLVWLPILLFFR, CRVSLPILLFFR is higher in protein stability index: 0.0521 for the first, 0.0571 for the second.

First: CSVSLPILLFFR
Second: CVVSLPILLFFR
The protein stability index of the first is lower: 0.0485 for the first, 0.0506 for the second.

First: EVTRLDAIYFRI
Second: FITLPMCPLLLR
The protein stability index of the first is higher: 0.435 for the first, 0.333 for the second.

First: FLVSLPILLFFR
Second: GCYMCSVGCWFR
The protein stability index of the first is lower: 0.0831 for the first, 0.326 for the second.

Compared with GIYMCSVGCWFR, GLYACSVGCWFR is higher in protein stability index: 0.256 for the first, 0.386 for the second.

Compared with GLYDCSVGCWFR, GLYKCSVGCWFR is lower in protein stability index: 0.56 for the first, 0.453 for the second.

First: GLYMCEVGCWFR
Second: GLYMCGVGCWFR
The protein stability index of the first is higher: 0.485 for the first, 0.335 for the second.

Going from GLYMCQVGCWFR to GLYMCSVGCGFR, the protein stability index rises from 0.308 to 0.628.

Compared with GLYMCSVGCWCR, GLYMCSVGCWFD is higher in protein stability index: 0.334 for the first, 0.471 for the second.

Compared with GLYMCSVGCWFI, GLYMCSVGCWFM is higher in protein stability index: 0.44 for the first, 0.543 for the second.

First: GLYMCSVPCWFR
Second: GLYMCSVWCWFR
The protein stability index of the first is higher: 0.646 for the first, 0.305 for the second.

Going from GLYMPSVGCWFR to GLYMRSVGCWFR, the protein stability index rises from 0.196 to 0.252.

First: GLYMSSVGCWFR
Second: GLYMYSVGCWFR
The protein stability index of the first is higher: 0.299 for the first, 0.238 for the second.

Compared with GLYPCSVGCWFR, GQYMCSVGCWFR is lower in protein stability index: 0.394 for the first, 0.363 for the second.

Going from GWYMCSVGCWFR to HLVSLPILLFFR, the protein stability index falls from 0.168 to 0.108.

First: HSLRVLLPLYFR
Second: KLYMCSVGCWFR
The protein stability index of the first is lower: 0.309 for the first, 0.349 for the second.

First: KVTRLDAIYFRI
Second: LLYMCSVGCWFR
The protein stability index of the first is lower: 0.251 for the first, 0.348 for the second.

Going from LSLRVLLPLYFR to MLVSLPILLFFR, the protein stability index falls from 0.311 to 0.089.

Going from NITLPMCPLLLR to RDLRVLLPLYFR, the protein stability index falls from 0.359 to 0.295.

Going from RFLRVLLPLYFR to RPTRLDAIYFRI, the protein stability index rises from 0.381 to 0.504.

First: RSERVLLPLYFR
Second: RSGRVLLPLYFR
The protein stability index of the first is lower: 0.365 for the first, 0.372 for the second.

Going from RSLPVLLPLYFR to RSLRCLLPLYFR, the protein stability index rises from 0.186 to 0.408.

First: RSLRKLLPLYFR
Second: RSLRVLDPLYFR
The protein stability index of the first is lower: 0.474 for the first, 0.556 for the second.

Compared with RSLRVLLELYFR, RSLRVLLPLWFR is lower in protein stability index: 0.557 for the first, 0.459 for the second.

First: RSLRVLLPLYDR
Second: RSLRVLLPLYFRN
The protein stability index of the first is higher: 0.652 for the first, 0.204 for the second.

Going from RSLRVLLPLYGR to RSLRVLLPLYVR, the protein stability index falls from 0.595 to 0.202.

First: RSLRVLLWLYFR
Second: RSLRVLLYLYFR
The protein stability index of the first is lower: 0.166 for the first, 0.235 for the second.

Going from RSLRVLSPLYFR to RSLRVRLPLYFR, the protein stability index falls from 0.308 to 0.187.

Compared with RSNRVLLPLYFR, RSQRVLLPLYFR is lower in protein stability index: 0.334 for the first, 0.308 for the second.

Going from RSVRVLLPLYFR to RVKRLDAIYFRI, the protein stability index rises from 0.238 to 0.392.

Going from RVTELDAIYFRI to RVTRHDAIYFRI, the protein stability index falls from 0.633 to 0.517.

Compared with RVTRLDAIAFRI, RVTRLDAICFRI is lower in protein stability index: 0.673 for the first, 0.656 for the second.

First: RVTRLDAIYERI
Second: RVTRLDAIYFHI
The protein stability index of the first is higher: 0.67 for the first, 0.491 for the second.

Compared with RVTRLDAIYFNI, RVTRLDAIYFRE is higher in protein stability index: 0.572 for the first, 0.676 for the second.

First: RVTRLDAIYFRIR
Second: RVTRLDAIYFRN
The protein stability index of the first is lower: 0.589 for the first, 0.6 for the second.

Going from RVTRLDAIYFRV to RVTRLDAIYFTI, the protein stability index rises from 0.342 to 0.548.

Compared with RVTRLDAIYFWI, RVTRLDAIYKRI is higher in protein stability index: 0.523 for the first, 0.667 for the second.

Going from RVTRLDAIYLRI to RVTRLDANYFRI, the protein stability index rises from 0.302 to 0.689.

First: RVTRLDAYYFRI
Second: RVTRLDLIYFRI
The protein stability index of the first is higher: 0.609 for the first, 0.224 for the second.

First: RVTRLDPIYFRI
Second: RVTRLNAIYFRI
The protein stability index of the first is higher: 0.462 for the first, 0.229 for the second.

Going from RVTRPDAIYFRI to RVVRLDAIYFRI, the protein stability index rises from 0.34 to 0.399.

Sequence YSLRVLLPLYFR has a protein stability index of 0.244.

system: Saccharomyces cerevisiae; assay: protein stability index of tFT-peptide fusion in deletion strain of DOA10 (PSI (0-1 scale)); higher = more stable (slower turnover); conditions: not given
Experimental: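 MPS profiling in S. cerevisiae of two library types built from selected 12-aa C-degron peptides (IN1, IN2, LN1, LN3, VN2, R1-R5, W1-W3, Atg1 and Rpa12 C-termini): saturation mutagenesis libraries and C-terminal +1 capping libraries (13 aa). Each peptide is fused to the C-terminus of a sfGFP-mCherry timer, after a GGGS linker. Cells are FACS-sorted into 8 mCherry/sfGFP bins and sequenced. PSI runs from 0 (unstable) to 1 (stable), measured once in wild type and in the das1Δ or doa10Δ background.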

Going from CLVWLPILLFFR to CRVSLPILLFFR, the protein stability index rises from 0.359 to 0.62.

First: CSVSLPILLFFR
Second: CVVSLPILLFFR
The protein stability index of the first is higher: 0.617 for the first, 0.589 for the second.

First: EVTRLDAIYFRI
Second: FITLPMCPLLLR
The protein stability index of the first is higher: 0.701 for the first, 0.61 for the second.

Going from FLVSLPILLFFR to GCYMCSVGCWFR, the protein stability index rises from 0.539 to 0.667.

First: GIYMCSVGCWFR
Second: GLYACSVGCWFR
The protein stability index of the first is lower: 0.611 for the first, 0.678 for the second.

First: GLYDCSVGCWFR
Second: GLYKCSVGCWFR
The protein stability index of the first is higher: 0.716 for the first, 0.671 for the second.

Compared with GLYMCEVGCWFR, GLYMCGVGCWFR is higher in protein stability index: 0.642 for the first, 0.682 for the second.

Going from GLYMCQVGCWFR to GLYMCSVGCGFR, the protein stability index rises from 0.641 to 0.655.

Going from GLYMCSVGCWCR to GLYMCSVGCWFD, the protein stability index rises from 0.45 to 0.518.

Compared with GLYMCSVGCWFI, GLYMCSVGCWFM is higher in protein stability index: 0.585 for the first, 0.586 for the second.

Compared with GLYMCSVPCWFR, GLYMCSVWCWFR is lower in protein stability index: 0.682 for the first, 0.399 for the second.

Compared with GLYMPSVGCWFR, GLYMRSVGCWFR is higher in protein stability index: 0.683 for the first, 0.688 for the second.

Compared with GLYMSSVGCWFR, GLYMYSVGCWFR is lower in protein stability index: 0.688 for the first, 0.605 for the second.

First: GLYPCSVGCWFR
Second: GQYMCSVGCWFR
The protein stability index of the first is higher: 0.678 for the first, 0.673 for the second.

Compared with GWYMCSVGCWFR, HLVSLPILLFFR is higher in protein stability index: 0.601 for the first, 0.618 for the second.

First: HSLRVLLPLYFR
Second: KLYMCSVGCWFR
The protein stability index of the first is higher: 0.669 for the first, 0.654 for the second.

Compared with KVTRLDAIYFRI, LLYMCSVGCWFR is lower in protein stability index: 0.67 for the first, 0.571 for the second.

Compared with LSLRVLLPLYFR, MLVSLPILLFFR is lower in protein stability index: 0.616 for the first, 0.565 for the second.

First: NITLPMCPLLLR
Second: RDLRVLLPLYFR
The protein stability index of the first is lower: 0.664 for the first, 0.675 for the second.

RFLRVLLPLYFR and RPTRLDAIYFRI are the same in protein stability index: 0.666 for the first, 0.666 for the second.

Going from RSERVLLPLYFR to RSGRVLLPLYFR, the protein stability index falls from 0.674 to 0.665.

First: RSLPVLLPLYFR
Second: RSLRCLLPLYFR
The protein stability index of the first is lower: 0.672 for the first, 0.681 for the second.

Going from RSLRKLLPLYFR to RSLRVLDPLYFR, the protein stability index rises from 0.67 to 0.721.

Compared with RSLRVLLELYFR, RSLRVLLPLWFR is higher in protein stability index: 0.593 for the first, 0.67 for the second.

Going from RSLRVLLPLYDR to RSLRVLLPLYFRN, the protein stability index falls from 0.708 to 0.5.

First: RSLRVLLPLYGR
Second: RSLRVLLPLYVR
The protein stability index of the first is higher: 0.642 for the first, 0.35 for the second.

Going from RSLRVLLWLYFR to RSLRVLLYLYFR, the protein stability index falls from 0.524 to 0.479.

First: RSLRVLSPLYFR
Second: RSLRVRLPLYFR
The protein stability index of the first is higher: 0.691 for the first, 0.675 for the second.

Going from RSNRVLLPLYFR to RSQRVLLPLYFR, the protein stability index rises from 0.701 to 0.705.

Going from RSVRVLLPLYFR to RVKRLDAIYFRI, the protein stability index falls from 0.661 to 0.64.

First: RVTELDAIYFRI
Second: RVTRHDAIYFRI
The protein stability index of the first is lower: 0.64 for the first, 0.689 for the second.

Going from RVTRLDAIAFRI to RVTRLDAICFRI, the protein stability index rises from 0.708 to 0.713.

Compared with RVTRLDAIYERI, RVTRLDAIYFHI is lower in protein stability index: 0.708 for the first, 0.527 for the second.

Going from RVTRLDAIYFNI to RVTRLDAIYFRE, the protein stability index rises from 0.703 to 0.725.

Going from RVTRLDAIYFRIR to RVTRLDAIYFRN, the protein stability index falls from 0.717 to 0.676.

Compared with RVTRLDAIYFRV, RVTRLDAIYFTI is higher in protein stability index: 0.63 for the first, 0.64 for the second.

Going from RVTRLDAIYFWI to RVTRLDAIYKRI, the protein stability index rises from 0.561 to 0.698.

Going from RVTRLDAIYLRI to RVTRLDANYFRI, the protein stability index rises from 0.704 to 0.716.

First: RVTRLDAYYFRI
Second: RVTRLDLIYFRI
The protein stability index of the first is higher: 0.714 for the first, 0.654 for the second.

First: RVTRLDPIYFRI
Second: RVTRLNAIYFRI
The protein stability index of the first is higher: 0.707 for the first, 0.496 for the second.

Compared with RVTRPDAIYFRI, RVVRLDAIYFRI is lower in protein stability index: 0.706 for the first, 0.65 for the second.

YSLRVLLPLYFR was tested, and the protein stability index was 0.632.
